According to US20190211086A1 (RPEPTIDE, published 2019):

Tests used:
Tau Isoform 383 [1] = target: T1, Tau Isoform 383 (human, UniProt P10636 2-758); experiment: ELISA, 100 ng or 50 ng coated tau isoform, antibody 1:1,000 and 1:10,000
T1 construct: Obtained as a lyophilized purified isoform; also called Tau 383; tau383
Description: More specifically, the 4G11 mAb was tested in an ELISA against 100 ng of each of the Tau isoforms at a 1:1,000 antibody dilution (FIG. 6A); against 100 ng of each of the Tau isoforms at a 1:10,000 antibody dilution (FIG. 6B); against 50 ng of each of the Tau isoforms at a 1:1,000 antibody dilution (FIG. 6C); and against 50 ng of each of the Tau isoforms at a 1:10,000 antibody dilution (FIG. 6D). […] The highest binding levels were found using 100 ng of the tau isoform with an antibody dilution of 1:1,000.
Antibody 4G11 was tested in an ELISA against 100 ng and 50 ng of the six human Tau isoform using antibodies dilutions of 1:1,000 and 1:10,000. Both 4G11 stored at −80° C. as well as a lyophilized form stored at ambient temperature were compared in this assay and the results are provided in FIGS. 6A-D (the left bar for each isoform are the results of the antibody stored at −80° C. and the right bar for each isoform is the lyophilized form, stored at 25° C.

Tau Isoform 441 = target: T2, Tau Isoform 441 (human, UniProt P10636 2-758); experiment: screening of hybridoma cell lines; assay not given
T2 construct: Obtained as a lyophilized purified isoform; also called tau441
T2 sequence (P10636 other isoform, or with tags, fused parts or gaps limits assumed): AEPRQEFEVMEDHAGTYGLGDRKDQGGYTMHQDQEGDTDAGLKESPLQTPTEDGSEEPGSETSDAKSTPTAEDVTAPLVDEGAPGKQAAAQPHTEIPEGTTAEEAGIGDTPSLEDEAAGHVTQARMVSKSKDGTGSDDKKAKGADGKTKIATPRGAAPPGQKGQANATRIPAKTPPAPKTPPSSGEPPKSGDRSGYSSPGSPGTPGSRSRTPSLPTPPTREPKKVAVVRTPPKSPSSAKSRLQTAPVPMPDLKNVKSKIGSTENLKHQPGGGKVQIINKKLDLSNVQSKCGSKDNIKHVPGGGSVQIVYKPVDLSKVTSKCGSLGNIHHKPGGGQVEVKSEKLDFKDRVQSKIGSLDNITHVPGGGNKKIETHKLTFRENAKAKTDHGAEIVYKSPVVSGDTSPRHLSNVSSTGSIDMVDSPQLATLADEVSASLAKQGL

Tau Isoform 381 = target: T3, Tau Isoform 381 (human, UniProt P10636 2-758); experiment: screening of hybridoma cell lines; assay not given
T3 construct: Obtained as a lyophilized purified isoform; also called tau381
T3 sequence (P10636 other isoform, or with tags, fused parts or gaps limits assumed): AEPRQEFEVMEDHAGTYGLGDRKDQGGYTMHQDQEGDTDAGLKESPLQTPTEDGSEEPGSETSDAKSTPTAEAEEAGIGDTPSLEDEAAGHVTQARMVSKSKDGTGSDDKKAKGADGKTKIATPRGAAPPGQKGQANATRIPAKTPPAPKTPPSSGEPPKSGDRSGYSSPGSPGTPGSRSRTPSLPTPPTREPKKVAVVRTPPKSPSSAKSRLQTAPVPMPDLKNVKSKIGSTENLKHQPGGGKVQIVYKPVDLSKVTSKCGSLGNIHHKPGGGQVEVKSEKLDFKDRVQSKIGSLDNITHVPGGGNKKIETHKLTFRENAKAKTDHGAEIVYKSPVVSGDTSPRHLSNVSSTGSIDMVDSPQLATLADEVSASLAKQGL

Tau Isoform 410 = target: T4, Tau Isoform 410 (human, UniProt P10636 2-758); experiment: screening of hybridoma cell lines; assay not given
T4 construct: Obtained as a lyophilized purified isoform; also called Tau 410; tau410
T4 sequence (P10636 other isoform, or with tags, fused parts or gaps limits assumed): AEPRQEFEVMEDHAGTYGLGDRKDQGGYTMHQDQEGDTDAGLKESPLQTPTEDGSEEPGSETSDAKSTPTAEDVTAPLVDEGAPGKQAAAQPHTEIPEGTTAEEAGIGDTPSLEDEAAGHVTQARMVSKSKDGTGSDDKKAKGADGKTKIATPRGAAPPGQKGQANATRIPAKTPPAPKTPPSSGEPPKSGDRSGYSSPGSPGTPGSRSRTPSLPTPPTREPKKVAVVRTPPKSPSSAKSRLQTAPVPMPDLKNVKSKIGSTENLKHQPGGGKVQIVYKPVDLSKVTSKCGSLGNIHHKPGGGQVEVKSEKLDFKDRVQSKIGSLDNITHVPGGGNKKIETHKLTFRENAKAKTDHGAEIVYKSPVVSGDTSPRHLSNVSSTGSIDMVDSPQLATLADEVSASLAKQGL

Tau Isoform 412 = target: T5, Tau Isoform 412 (human, UniProt P10636 2-758); experiment: screening of hybridoma cell lines; assay not given
T5 construct: Obtained as a lyophilized purified isoform; also called tau412
T5 sequence (P10636 other isoform, or with tags, fused parts or gaps limits assumed): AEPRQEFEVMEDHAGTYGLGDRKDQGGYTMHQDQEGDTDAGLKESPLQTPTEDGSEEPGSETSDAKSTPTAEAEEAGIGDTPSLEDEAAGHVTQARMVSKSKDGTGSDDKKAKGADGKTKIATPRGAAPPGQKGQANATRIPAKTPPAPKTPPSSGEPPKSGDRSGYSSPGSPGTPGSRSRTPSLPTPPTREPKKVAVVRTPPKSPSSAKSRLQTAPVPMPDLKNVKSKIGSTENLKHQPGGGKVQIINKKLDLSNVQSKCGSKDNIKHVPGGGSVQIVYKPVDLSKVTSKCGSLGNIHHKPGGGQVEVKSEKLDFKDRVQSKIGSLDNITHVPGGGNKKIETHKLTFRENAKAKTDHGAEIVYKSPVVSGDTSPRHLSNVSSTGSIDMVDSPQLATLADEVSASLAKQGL

Tau Isoform 352 [2] = target: T6, Tau Isoform 352 (human, UniProt P10636 2-758); experiment: not named in the sentence (summary of antibody generation)
T6 construct: Obtained as a lyophilized purified isoform; also called Tau 352; tau352
T6 sequence (P10636 other isoform, or with tags, fused parts or gaps limits assumed): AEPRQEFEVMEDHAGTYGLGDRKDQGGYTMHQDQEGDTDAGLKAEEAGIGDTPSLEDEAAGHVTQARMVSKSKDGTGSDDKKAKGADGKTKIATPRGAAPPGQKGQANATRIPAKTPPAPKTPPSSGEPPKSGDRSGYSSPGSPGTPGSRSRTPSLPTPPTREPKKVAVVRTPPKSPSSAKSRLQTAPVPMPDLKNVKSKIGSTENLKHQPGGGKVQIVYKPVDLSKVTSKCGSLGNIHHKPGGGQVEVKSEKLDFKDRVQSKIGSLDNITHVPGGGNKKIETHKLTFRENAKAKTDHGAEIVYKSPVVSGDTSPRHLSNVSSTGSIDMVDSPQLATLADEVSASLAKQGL

Tau Isoform 352 [3] = target: T6, Tau Isoform 352; experiment: screening of hybridoma cell lines; assay not given
Tau Isoform 383 [4] = target: T1, Tau Isoform 383; experiment: screening of hybridoma cell lines; assay not given

Measured: binding result

T1 sequence (P10636 other isoform, or with tags, fused parts or gaps limits assumed): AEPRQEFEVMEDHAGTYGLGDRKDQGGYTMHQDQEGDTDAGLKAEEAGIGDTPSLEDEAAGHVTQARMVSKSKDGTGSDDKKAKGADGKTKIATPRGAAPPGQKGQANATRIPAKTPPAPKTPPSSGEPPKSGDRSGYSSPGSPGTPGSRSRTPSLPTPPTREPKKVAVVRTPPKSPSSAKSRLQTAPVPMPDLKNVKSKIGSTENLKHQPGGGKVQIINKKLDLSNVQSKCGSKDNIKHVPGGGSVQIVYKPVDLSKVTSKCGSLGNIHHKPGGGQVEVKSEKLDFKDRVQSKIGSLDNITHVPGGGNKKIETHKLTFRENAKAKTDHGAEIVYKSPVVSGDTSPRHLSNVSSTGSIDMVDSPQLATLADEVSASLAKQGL

B1: monoclonal antibody 4G11 (antibody, IgA, V domains shown)
VH: EVQLVESGGGLVQPKGSLKLSCAASGFTFNIYAMNWVRQAPGKGLEWVARIRSKSNNYATYYADSMKDRFTISRDDSQSMLYLQMNNLKTEDTAMYYCVRHGNYYFDYWGQGTTLTVSS
VL: ENVLTQSPAIMAASLGQKVTMTCSADSSVSSSYLNWYQQKSGASPKPLIHRTSNLASGVPARFSGSGSGTSYSLTISSVEAEDDATYYCQQWSGYPFIFTFGSGTKLEIK
notes: also called Tau 4G11; mAb 4G11
not listed: Tau Isoform 352 [3] | Tau Isoform 383 [4]
binds: all other assays above

B2: monoclonal antibody 1A6 (antibody, IgM, V domains shown)
VH: DVQLVESGGGLVQPGGSRKLSCAASGFTFSSFGMHWVRQVPEKGLEWVAYISSGSSTIYYADTVKGRFTISRDNPKNTLFLQMTSLRSEDTAMYYCASNQSPTGFAYWGQGTLVTVSA
VL: DVVMTQTPLSLPVSLGDQASISCRSSQSLVHSNGNTYLHWYLQKPGQSPKLLIYKVSNRFSGVPDRFSGSGSGTDFTLKISRVEAEDLGVYFCSQSTHVPLTFGAGTKLELK
notes: Mouse hybridoma antibody (h1A6, ATCC PTA-122038), from a mouse immunized with tau 352; also called Tau 1A6; mAb 1A6
not listed: Tau Isoform 383 [1] | Tau Isoform 352 [2]
binds: all other assays above
